Three molecules from publication PMC2801614, “Promoter Recognition by a Complex of Spx and the C-Terminal Domain of the RNA Polymerase α Subunit” (PLoS ONE, 2010) can be followed below.

In one data set the target is T1, wild-type Spx protein (Bacillus subtilis, UniProt O31602 1-131).
T1 construct: Spx of Bacillus subtilis; Made with the self-cleavable intein system (New England Biolabs); also called oxidized Spx; source: E. coli ER2566 (pMMN470), purified (chitin column, High S column)
T1 sequence (looked up): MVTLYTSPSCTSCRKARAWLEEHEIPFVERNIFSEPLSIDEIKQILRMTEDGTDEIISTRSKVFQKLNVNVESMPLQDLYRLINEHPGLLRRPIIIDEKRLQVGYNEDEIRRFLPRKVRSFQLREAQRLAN
Nature of the data set: native gel or EMSA; supershift of the αCTD-trxB promoter (-56 to -21) complex; 5 µM Spx and 5 µM αCTD preincubated 10 min at room temperature in 20 mM Tris-HCl pH 7.8, 50 mM NaCl, 5 mM MgCl2, 10% glycerol, then 32P-labelled probe 15 min; 6% native polyacrylamide gel in TGE buffer; no DTT. The conditions noted are these: both partners purified. Background: In EMSA bound probe runs differently from free probe, usually more slowly.

Data set [1] has as its target T2, alphaCTD (C-terminal domain of RNA polymerase alpha subunit) (Bacillus subtilis, UniProt P20429 225-314).
T2 sequence: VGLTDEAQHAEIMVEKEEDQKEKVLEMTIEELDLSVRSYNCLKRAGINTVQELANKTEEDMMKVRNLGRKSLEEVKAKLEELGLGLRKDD
Description: EMSA; 5 uM alphaCTD; EMSA: 20 mM Tris-HCl pH 7.8, 50 mM NaCl, 5 mM MgCl2, 10% glycerol, 5 uM each protein unless stated, room temperature (10 min preincubation, 15 min with probe). The conditions noted are these: protein: recombinant; tags: tag-free after self-cleavable intein/chitin purification; label: 32P-dA at 3' end of the S42 strand (Klenow fill-in); blunt after Klenow fill-in of S42 (35-mer).

A further data set addresses T3, Spx wild-type (Bacillus subtilis, UniProt O31602 1-131).
T3 sequence: T1 sequence (looked up)
Description: EMSA; 5 uM Spx alone; EMSA: 20 mM Tris-HCl pH 7.8, 50 mM NaCl, 5 mM MgCl2, 10% glycerol, 5 uM each protein unless stated, room temperature (10 min preincubation, 15 min with probe). The conditions noted are these: protein: recombinant; tags: tag-free after self-cleavable intein/chitin purification; label: 32P-dA at 3' end of the S42 strand (Klenow fill-in); blunt after Klenow fill-in of S42 (35-mer).

Data set [2] addresses T4, alphaCTD (C-terminal domain of RNA polymerase alpha subunit);SpxR60E (Bacillus subtilis;Bacillus subtilis, UniProt P20429;O31602 225-314;1-131, |R60E).
T4 sequence 1: T2 sequence
T4 sequence 2: T1 sequence (looked up) with R60E
Nature of the data set: EMSA; 5 uM each; SpxR60E also prevents the alphaCTD-DNA complex; EMSA: 20 mM Tris-HCl pH 7.8, 50 mM NaCl, 5 mM MgCl2, 10% glycerol, 5 uM each protein unless stated, room temperature (10 min preincubation, 15 min with probe). The conditions noted are these: protein: recombinant;recombinant; tags: tag-free after self-cleavable intein/chitin purification;intein (pTYB4), cleaved; cloned via NcoI/SmaI; copies: 1;1; label: 32P-dA at 3' end of the S42 strand (Klenow fill-in); blunt after Klenow fill-in of S42 (35-mer).

For data set [3], the target named is T2, alphaCTD (C-terminal domain of RNA …). Description: EMSA; EMSA: 20 mM Tris-HCl pH 7.8, 50 mM NaCl, 5 mM MgCl2, 10% glycerol, 5 uM each protein unless stated, room temperature (10 min preincubation, 15 min with probe). The conditions noted are these: protein: recombinant; tags: tag-free after self-cleavable intein/chitin purification; label: 32P-dA at 3' end of the S44 strand (Klenow fill-in); blunt after Klenow fill-in of S44 (35-mer).

Positions count from the first letter of the chain named.

B1: αCTD (residues 225–314) (domain or fragment, Bacillus subtilis, UniProt P20429 225-314, looked up)
chain: T2 sequence
notes: RNA polymerase α subunit (RpoA) of Bacillus subtilis, C-terminal domain, residues 225-314; Made with the self-cleavable intein system (New England Biolabs); also called rpoA-CTD; source: E. coli BL21/pLysS (pSN37), purified (chitin column, High Q column)
On to B1, for which the binding result with wild-type Spx protein is recorded as “binds”.

B2: trxB promoter (-56 to -21) (dsDNA)
DNA 1: TAATCGTGTTGAGCAAAAAAATAGCGTATCACCATG
DNA 2: CATGGTGATACGCTATTTTTTTGCTCAACACGATTA
Consider B2, for which the binding result is “binds” in data set [1], “no binding” with Spx wild-type and “no binding” in data set [2].

B3: trxB (-56 to -21) G-44A G-33A (dsDNA)
DNA 1: B2 DNA 1 with G13A, G24A
DNA 2: B2 DNA 2 with C13T, C24T
As for B3, the binding result in data set [3] is “binds”.
